# From patent publication US20220259318A1 (Hoffmann-La Roche, published 2022)
# Residue numbers refer to the chain shown, from its start. Several values for one entry are separate records, joined by “and”; a condition that tells them apart may be missing. Equal values may be shown once. Read-outs that look alike come from different tables or passages of the source.
# B1: 5F11-TCB (bispecific antibody, human IgG1, kappa, L234A L235A)
# light 1: DIVMTQAPLSVSVTPGESASISCRSSKSLLHSNGITYVYWYFQKPGKSPQVLIYRMSNLASGVPDRFSGSGSETDFTLKISRVEAEDVGIYHCGQLLENPYTFGAGTELELKRTVAAPSVFIFPPSDRKLKSGTASVVCLLNNFYPREAKVQWKVDNALQSGNSQESVTEQDSKDSTYSLSSTLTLSKADYEKHKVYACEVTHQGLSSPVTKSFNRGEC
# light 2: EVQLLESGGGLVQPGGSLRLSCAASGFTFSTYAMNWVRQAPGKGLEWVSRIRSKYNNYATYYADSVKGRFTISRDDSKNTLYLQMNSLRAEDTAVYYCVRHGNFGNSYVSWFAYWGQGTLVTVSSASVAAPSVFIFPPSDEQLKSGTASVVCLLNNFYPREAKVQWKVDNALQSGNSQESVTEQDSKDSTYSLSSTLTLSKADYEKHKVYACEVTHQGLSSPVTKSFNRGEC
# heavy 1: EVQLVESGGGLVQPGRSLKLSCAASGFSFSNYGMAWVRQAATKGLEWVASISTGGGNTYYRDSVKGRFIVSRDNAKNTQYLQMDSLRSEDTATYYCTRHDRGGLYWGQGVMVTVSSASTKGPSVFPLAPSSKSTSGGTAALGCLVEDYFPEPVTVSWNSGALTSGVHTFPAVLQSSGLYSLSSVVTVPSSSLGTQTYICNVNHKPSNTKVDEKVEPKSCDKTHTCPPCPAPEAAGGPSVFLFPPKPKDTLMISRTPEVTCVVVDVSHEDPEVKFNWYVDGVEVHNAKTKPREEQYNSTYRVVSVLTVLHQDWLNGKEYKCKVSNKALGAPIEKTISKAKGQPREPQVCTLPPSRDELTKNQVSLSCAVKGFYPSDIAVEWESNGQPENNYKTTPPVLDSDGSFFLVSKLTVDKSRWQQGNVFSCSVMHEALHNHYTQKSLSLSPGK
# heavy 2: not shown
# notes: 2+1 anti-GPRC5D/anti-CD3 T cell bispecific: LC1 (GPRC5D), LC2 (CD3 crossed VH-CL), HC hole, HC knob; also called 5F11p-CH2527
# B2: 5F11(VH1c + VL1b)-C122-TCB (P1AE6624) (bispecific antibody, human IgG1, kappa, L234A L235A)
# light 1: B1 light 1 with A7S, V11L, S12P, S18P, F42L, E73G, I90V, A105Q, E108K, L111I
# light 2: B1 light 2 with T28Q, T31S, G102T, N103T, G105P, N106S, W111Y, F112Y, A113G
# heavy 1: QVQLVESGGGVVQPGRSLRLSCAASGFSFSNYGMAWVRQAPGKGLEWVASISTGGGNTYYADSVKGRFTISRDNSKNTLYLQMNSLRAEDTAVYYCTRHDRGGLYWGQGTMVTVSSASTKGPSVFPLAPSSKSTSGGTAALGCLVEDYFPEPVTVSWNSGALTSGVHTFPAVLQSSGLYSLSSVVTVPSSSLGTQTYICNVNHKPSNTKVDEKVEPKSCDKTHTCPPCPAPEAAGGPSVFLFPPKPKDTLMISRTPEVTCVVVDVSHEDPEVKFNWYVDGVEVHNAKTKPREEQYNSTYRVVSVLTVLHQDWLNGKEYKCKVSNKALGAPIEKTISKAKGQPREPQVCTLPPSRDELTKNQVSLSCAVKGFYPSDIAVEWESNGQPENNYKTTPPVLDSDGSFFLVSKLTVDKSRWQQGNVFSCSVMHEALHNHYTQKSLSLSPGK
# heavy 2: not shown
# notes: 2+1 TCB: LC1 (anti-GPRC5D), LC2 (anti-CD3 crossed), HC1 Fc hole, HC2 Fc knob
# B3: 10B10 IgG (antibody, V domains shown)
# VH: EVQLVESGGGLVQPGRSMKLSCAASGFTFTNFYMAWVRQAPTKALEWVASINTGGGYTYYRDSVKGRFTVSRDNTRSTLYLQMDSLRSEETATYYCARHLTYYGRYYYFDYWGQGVMVTVSS
# VL: DIQLTQSPHSLSASLGETVSIECLASEGISNYLAWFHQKPGKSPQLLIYYASSLQDGVPSRFSGSGSGTQYSLKISNMQPEDEGVYYCQQGYKYPLTFGSGTKLEIK
# B4: 5E11-IgG (antibody, V domains shown)
# VH: ELQLEQSGGGLVQPGGSLTLSCAASGFTFSKYAMAWVRQAPTKGLEWVASISTGGVNTYYRDSVKARFTISRDNAKNTQYLQMDSLRSEDTATYYCATHTGDYFDYWGQGVMVTVSS
# VL: DIVLTQSPALAVSPGQRATISCRASQSVSISGINLMNWYQQKPGQQPKLLIYHASILASGIPTRFSGSGSGTDFTLTIDPVQADDIATYYCQQTRESPLTFGSGTNLEIK
# notes: Rat-derived variable domains, tested as IgG; also called P1AE5706 (parental); 5E11 parental
# B5: 5F11-IgG (antibody, V domains shown)
# VH: EVQLVESGGGLVQPGRSLKLSCAASGFSFSNYGMAWVRQAATKGLEWVASISTGGGNTYYRDSVKGRFIVSRDNAKNTQYLQMDSLRSEDTATYYCTRHDRGGLYWGQGVMVTVSS
# VL: DIVMTQAPLSVSVTPGESASISCRSSKSLLHSNGITYVYWYFQKPGKSPQVLIYRMSNLASGVPDRFSGSGSETDFTLKISRVEAEDVGIYHCGQLLENPYTFGAGTELELK
# notes: Rat-derived variable domains, tested as IgG; also called P1AE5733 (parental); 5F11_parental
# What was measured:
# human GPRC5D [1] = target: T1, human GPRC5D (human, UniProt Q9NZD1 1-345); assay: cell-based or functional assay
# human GPRC5D [2] = target: T1, human GPRC5D; assay: cell-based or functional assay; remark: listed apart in the source
# human CD3 = target: T2, human CD3 (human, UniProt P07766 23-207); assay: flow cytometry on Jurkat-NFAT cells; paragraph 550 says these values were falsely calculated by a factor of 10 (too low)
# T2 construct: Expressed on Jurkat-NFAT reporter cells as part of the TCR/CD3 complex; also called hCD3; CD3 epsilon
# Protocol: (§1) To measure the binding to GPRC5D, we performed a flow cytometry-based binding assay on reported multiple myeloma cell lines (Lombardi et al., Molecular characterization of human multiple myeloma cell lines by integrative genomics: insights into the biology of the disease; Genes Chromosomes Cancer. 2007 March; 46(3):226-38). The cell line NCI-H929 (ATCC® CRL-9068) was cultured in RPMI 1640 with Glutamax medium (Gibco) supplemented with 10% FBS, 1× Penicillin/Streptomycin (Gibco), 1× Sodium Pyruvate (Gibco) and 50 μM beta-Mercaptoethanol (Gibco). Jurkat-NFAT reporter cells (a CD3-expressing human acute lymphatic leukemia reporter cell line with a NFAT promoter, GloResponse Jurkat NFAT-RE-luc2P, Promega #CS176501) were cultured in RPMI 1640, containing 2 g/l Glucose, 2 g/l NaHCO₃, 10% FCS, 25 mM HEPES, 2 mM L-Glutamine, 1×NEAA, 1× Sodium-pyruvate and 200 μg/ml Hygromycin B.
# (§2) Flow cytometry acquisition was performed on a custom-designed BD Biosciences Fortessa and analyzed using BD Diva. EC50 values were calculated, using GraphPad Prism software.
# human GPRC5D [3] = target: T1, human GPRC5D; assay: cell-based or functional assay; remark: listed apart in the source
# human GPRC5D [4] = target: T1, human GPRC5D; assay: flow cytometry on NCI-H929 cells; paragraph 550 says these values were falsely calculated by a factor of 10 (too low)
# Protocol: as §1, §2
# human GPRC5D [5] = target: T1, human GPRC5D; assay: cell-based or functional assay; remark: listed apart in the source
# human GPRC5D [6] = target: T1, human GPRC5D; assay: cell ELISA, CHO cells stably expressing human GPRC5D
# Protocol: (§3) Stable transfected CHO clones expressing either human GPRCSD or cynomolgus GPRCSD or murine GPRCSD or human GPRCSA were used to analyze the binding of potential lead candidate antibodies as IgGs. In detail, 10⁴ cells (viability≥98%) were seeded into 384 well-microtiter plates (BD Poly D-Lysin, #356662, volume: 25 μl/well) using fresh culture medium. After overnight incubation at 37° C., 25 μl/well dilutions of antibodies were added (15×1:3 dilutions in 1×PBS, assay conc. starts at 30 μg/ml) to the cells for 2 hours at 4° C. After one washing step using 90 μl/well PBST (10×PBS, Roche, #11666789001+0.1% Tween 20), cells were subsequently fixed by the addition of 50 μl/well 0.05% glutaraldehyde (Sigma Cat. No: G5882 in 1×PBS) for 10 min at room temperature (RT). After three additional washing steps using 90 μl/well PBST, secondary antibodies were added for detection: for human antibodies goat anti-human Ig a chain antibody HRP conjugate (Millipore #AP502P) diluted 1:2000 in blocking buffer (1×PBS (Roche #11666789001)+2% BSA (Bovine Serum Albumin Fraction V, fatty acid free, Roche, #10735086001)+0.05% Tween 20) was used (25 μl/well). […] After incubation for 1 h at RT and three additional washing steps using 90 μl/well PBST, 25 μl/well TMB substrate was added (Roche order no. 11835033001) for 10 min and color development to final ODs was determined by measurement at 370 nm/492 nm.
# cynomolgus GPRC5D = target: T3, cynomolgus GPRC5D (cynomolgus); assay: cell ELISA, CHO cells stably expressing cynomolgus GPRC5D
# T3 construct: whole, on cells; also called cyno GPRC5D; CHO cy GPCR5D
# Protocol: as §3
# human GPRC5A = target: T4, human GPRC5A (human, UniProt Q8NFJ5 1-357); assay: cell ELISA on stably transfected CHO cells
# T4 construct: whole, on cells; also called hu GPCR5A; GPRCSA
# Protocol: as §3
# (§4) Cynomolgus crossreactivity was also detected for all other antibodies but at lower levels compared to 10B10 and 07A04 (FIG. 9). No significant binding to CHO cells expressing murine GPRC5D and no binding to CHO cells expressing the human version of GPRC5A was detected (FIG. 9).
# murine GPRC5D = target: T5, murine GPRC5D (murine, UniProt Q9JIL6 1-344); assay: cell ELISA on stably transfected CHO cells
# T5 construct: whole, on cells
# T5 sequence (looked up): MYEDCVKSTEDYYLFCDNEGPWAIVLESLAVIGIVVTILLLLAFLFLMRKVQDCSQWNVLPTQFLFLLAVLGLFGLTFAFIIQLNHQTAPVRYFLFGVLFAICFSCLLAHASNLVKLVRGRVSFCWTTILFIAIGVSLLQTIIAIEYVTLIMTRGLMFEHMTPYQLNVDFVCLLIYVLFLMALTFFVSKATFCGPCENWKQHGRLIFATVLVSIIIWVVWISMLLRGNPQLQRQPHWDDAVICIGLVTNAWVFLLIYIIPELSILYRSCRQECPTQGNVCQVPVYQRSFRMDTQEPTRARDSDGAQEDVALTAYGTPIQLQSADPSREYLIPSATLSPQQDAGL
# Protocol: as §3, §4
# human GPRC5D [7] = target: T1, human GPRC5D; assay: cell-based or functional assay; remark: listed apart in the source
# human GPRC5D [8] = target: T1, human GPRC5D; assay: cell-based or functional assay; remark: listed apart in the source
# human GPRC5D [9] = target: T1, human GPRC5D; assay: cell ELISA, CHO hu GPRC5D (EC/IC50 rel)
# Summary of the method: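 Stably transfected CHO cells seeded overnight, then incubated 2 h at 4° C with antibody IgGs in 15-point 1:3 dilutions from 30 μg/ml. Cells fixed with 0.05% glutaraldehyde; binding detected with HRP anti-human Ig and TMB, absorbance at 370/492 nm.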
# human GPRC5D [10] = target: T1, human GPRC5D; assay: cell-based or functional assay; remark: listed apart in the source
# T4 sequence (Q8NFJ5 whole entry): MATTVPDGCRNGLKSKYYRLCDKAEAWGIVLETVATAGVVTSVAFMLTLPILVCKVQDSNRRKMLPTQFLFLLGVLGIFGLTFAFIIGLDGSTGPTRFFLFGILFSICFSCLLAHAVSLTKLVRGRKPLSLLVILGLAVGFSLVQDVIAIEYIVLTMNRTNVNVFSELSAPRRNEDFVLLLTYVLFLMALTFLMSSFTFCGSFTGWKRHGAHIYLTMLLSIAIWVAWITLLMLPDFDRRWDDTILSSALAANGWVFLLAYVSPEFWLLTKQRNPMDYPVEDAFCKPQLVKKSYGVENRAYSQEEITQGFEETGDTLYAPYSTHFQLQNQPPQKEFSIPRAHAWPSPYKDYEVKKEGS
# T1 sequence (Q9NZD1 whole entry): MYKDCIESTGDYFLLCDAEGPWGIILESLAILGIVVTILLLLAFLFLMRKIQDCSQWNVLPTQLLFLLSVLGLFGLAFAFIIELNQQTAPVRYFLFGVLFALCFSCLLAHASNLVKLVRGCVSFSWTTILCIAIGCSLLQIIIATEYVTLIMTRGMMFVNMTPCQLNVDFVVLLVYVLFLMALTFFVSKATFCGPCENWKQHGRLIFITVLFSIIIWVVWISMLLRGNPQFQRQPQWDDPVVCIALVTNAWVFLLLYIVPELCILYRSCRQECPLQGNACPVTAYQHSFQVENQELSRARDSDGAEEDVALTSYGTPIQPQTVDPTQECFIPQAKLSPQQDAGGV
# T2 sequence (P07766 23-207 limits assumed): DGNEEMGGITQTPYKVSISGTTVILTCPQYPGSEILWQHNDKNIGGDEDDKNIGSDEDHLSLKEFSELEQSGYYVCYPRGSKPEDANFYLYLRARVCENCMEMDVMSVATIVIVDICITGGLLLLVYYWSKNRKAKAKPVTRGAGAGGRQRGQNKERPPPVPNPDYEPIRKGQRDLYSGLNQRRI
binder,measurement,setting,value
B1,"EC50 in vitro killing assay, AMO-1",human GPRC5D [1],6 pM
same,"EC50 in vitro killing assay, EJM",human GPRC5D [1],3 pM
same,"EC50 in vitro killing assay, L363",human GPRC5D [1],3 pM
same,"EC50 in vitro killing assay, MOLP-2",human GPRC5D [1],1 pM
same,"EC50 in vitro killing assay, NCI-H929",human GPRC5D [1],4 pM
same,"EC50 in vitro killing assay, OPM-2",human GPRC5D [1],1 pM
same,"EC50 in vitro killing assay, RPMI",human GPRC5D [1],6 pM
same,"AUC, activation of Jurkat-NFAT reporter cells in presence of RPMI-8226 cells",human GPRC5D [2],393000
same,"EC50 (pM), activation of Jurkat-NFAT reporter cells in presence of RPMI-8226 cells",human GPRC5D [2],14 pM
same,EC50,human CD3,2310 pM
same,"EC50 of anti-GPRC5D-TCB mediated killing, AMO-1",human GPRC5D [3],3 pM
same,"EC50 of anti-GPRC5D-TCB mediated killing, L363",human GPRC5D [3],1 pM
same,"EC50 of anti-GPRC5D-TCB mediated killing, NCI-H929",human GPRC5D [3],1 pM
same,"EC50 of anti-GPRC5D-TCB mediated killing, RPMI-8226",human GPRC5D [3],2 pM
same,EC50,human GPRC5D [4],180 pM
B2,"EC50 (pM), activation of autologous T-cells (CD69 on CD8 T cells) with a primary MM sample",human GPRC5D [5],1.06 pM
same,"AUC, activation of Jurkat-NFAT reporter cells in presence of RPMI-8226 cells",human GPRC5D [2],881000
same,"EC50 (pM), activation of Jurkat-NFAT reporter cells in presence of RPMI-8226 cells",human GPRC5D [2],4.5 pM
same,EC50,human GPRC5D [4],100 pM
B3,EC50,human GPRC5D [6],0.0163 µg/mL and 0.109 nM
same,EC50,cynomolgus GPRC5D,0.012 µg/mL and 0.08 nM
same,binding result,human GPRC5A,no binding (tested: assay conc. starts at 30 µg/ml)
same,binding result,murine GPRC5D,no binding (tested: assay conc. starts at 30 µg/ml)
B4,EC50 values of CAR-J activation,human GPRC5D [7],3.9 ng/mL
same,EC50,human GPRC5D [6],0.0296 µg/mL and 0.198 nM
same,"CAR-J2 EC50 [ng/mL] (PGLALA-CAR-J activation, L363 target cells)",human GPRC5D [8],3.9 ng/mL
same,EC50,human GPRC5D [9],0.0104 µg/mL and 0.07 nM
same,binding result,human GPRC5A,no binding (tested: assay conc. starts at 30 µg/ml)
B5,EC50 values of CAR-J activation,human GPRC5D [7],2.65 ng/mL
same,EC50,human GPRC5D [6],0.0217 µg/mL and 0.144 nM
same,"CAR-J2 EC50 [ng/mL] (PGLALA-CAR-J activation, L363 target cells)",human GPRC5D [10],2.65 ng/mL
same,EC50,human GPRC5D [9],0.0058 µg/mL and 0.04 nM
same,binding result,human GPRC5A,no binding (tested: assay conc. starts at 30 µg/ml)
